The target of the assay is T1, VSV-7 (Vesicular stomatitis virus).
T1 construct: also called GYVYQGL
The assay can be described thus: competitive RIA against [^125I]VSV-8 on K^bsol, P30 gel filtration, 23° C. In general terms: In gel filtration, larger molecules generally elute earlier.

B1: soluble H-2K^b (K^bsol), heterodimer of truncated K^b heavy chain and murine β-2 microglobulin, purified empty from Drosophila cells (other)
alpha: GPHSLRYFVTAVSRPGLGEPRYMEVGYVDDTEFVRFDSDAENPRYEPRARWMEQEGPEYWERETQKAKGNEQSFRVDLRTLLGYYNQSKGGSHTIQVISGCEVGSDGRLLRGYQQYAYDGCDYIALNEDLKTWTAADMAALITKHKWEQAGEAERLRAYLEGTCVEWLRRYLKNGNATLLRTDSPKAHVTHHSRPEDKVTLRCWALGFYPADITLTWQLNGEELIQDMELVETRPAGDGTFQKWASVVVPLGKEQYYTCHVYHQGLPEPLTLRW
b2m: IQKTPQIQVYSRHPPENGKPNILNCYVTQFHPPHIEIQMLKNGKKIPKVEMSDMSFSKDWSFYILAHTEFTPTETDTYACRVKHASMAEPKTVYWDRDM
notes: also called H-2K^b Sol; soluble K^b
As usually defined, the Kd is a measure of binding affinity in units of concentration. A higher Kd goes with weaker binding. B1 returned a Kd of 53 nM.

For the origin of these results see US20030077318A1 (Scripps Research, published 2003).
